This note sets out measurements from article PMC11437077.

In test [1] the target is T1, mouse PD-L2 with C-terminal biotin, Q9WUL5.
T1 chain: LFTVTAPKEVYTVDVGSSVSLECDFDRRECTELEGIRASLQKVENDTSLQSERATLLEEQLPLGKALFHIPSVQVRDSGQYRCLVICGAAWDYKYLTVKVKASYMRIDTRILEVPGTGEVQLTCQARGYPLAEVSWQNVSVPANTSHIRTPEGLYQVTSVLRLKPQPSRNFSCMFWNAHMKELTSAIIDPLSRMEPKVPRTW
The experiment in a line: 2D effective affinity measurement, PD-L2-coated RBCs against PD-1-expressing CHO cells. The following applies: chain shown with the change, parent: est. 0.00098, read off a plot.

The target in test [2] is T1, mouse PD-L2 with C-terminal biotin, …. In words: dynamic force spectroscopic analysis with BFP. The following applies: chain shown with the change.
Test [3] has the same target. In words: effective bond lifetime (bond lifetime x bond survival probability, BFP data). The following applies: chain shown with the change, read off a plot.
For test [4] the target is unchanged. In words: bond lifetime vs force measurement, single bonds (BFP). The following applies: chain shown with the change, read off a plot.

Changes are numbered by the printed parent chain. Numbers in names are those of the source.

B1: mouse PD-1 wild type expressed on CHO cells, Q02242 A132K (protein)
chain: LEVPNGPWRSLTFYPAWLTVSEGANATFTCSLSNWSEDLMLNWNRLSPSNQTEKQAAFCNGLSQPVQDARFQIIQLPNRHDFHMNILDTRRNDSGIYLCGAISLHPKKKIEESPGAELVVTERILETSTRYPSPSPKPEGRFQGMVIGIMSALVGIPVLLLLAWALAVFCSTSMSEARGAGSKDDTLKEEPSAAPVPSVAYEELDFQGREKTPELPTACVHTEYATIVFTEGLGASAMGRRGSADGLQGPRPPRHEDGHCSWPL
Consider B1, for which the other: AcKa (2D effective affinity) in test [1] (n = 12 cell pairs) came out at 0.00085 µm^4. The molecule further registered an other: F1/2 (rupture force) in test [2] (n = 270 events) of 9.5 pN.

B2: mouse PD-1 wild type expressed on CHO cells, Q02242 K131A (protein)
chain: B1 chain with K107A, K108A
Regarding B2, the other: AcKa (2D effective affinity) in test [1] (n = 12 cell pairs) was 0.0011 µm^4. For the same molecule, the other: F1/2 (rupture force) in test [2] (n = 210 events) came out at 9.4 pN.

B3: mouse PD-1 wild type expressed on CHO cells, Q02242 L128A; K131A (protein)
chain: B1 chain with L104A, K107A, K108A
With B3, the other: effective bond lifetime in test [3] (force bin est. 2.2 pN) turned out to be 0.16 s; in test [3] (force bin est. 4.3 pN), 0.14 s; in test [3] (force bin est. 8.3 pN), 0.04 s; in test [3] (force bin est. 11 pN) it was 0.015 s. Also, the other: bond lifetime in test [4] (force bin est. 2.2 pN) was 0.16 s; in test [4] (force bin est. 4.3 pN) it was 0.15 s; in test [4] (force bin est. 11 pN), 0.05 s. In test [1] (n = 13 cell pairs), the other: AcKa (2D effective affinity) turned out to be 0.00088 µm^4. Further, the other: F1/2 (rupture force) in test [2] (n = 345 events) turned out to be 9.7 pN.
